In assay [1] the target is pneumolysin (PLY) recombinant protein (Streptococcus pneumoniae, UniProt Q04IN8 1-471).
Assay [2] addresses T1, attenuated PLY mut recombinant protein (pneumolysin with alanine 146 deleted) (Streptococcus pneumoniae, UniProt Q04IN8 1-471).
T1 construct: The change is a deletion of A146, not a substitution ('-' under new means deleted); Expressed in E. coli BL21 (DE3) plysS with a C-terminal His tag; also called PLYmut protein; PLY mut antigen; not shown: C-terminal His tag
The assay can be described thus: ELISA, PLYmut coated at 0.1 µg/well, antibody in 2-fold dilutions, HRP goat anti-human IgG. In general terms: ELISA stands for enzyme-linked immunosorbent assay.

The EC50 is the concentration at which the effect is half-maximal.

B1: 2E5 mouse/human chimeric antibody (2E5HL) (antibody, human IgG1, kappa, V domains shown)
VH: EVKVEESGGGSVQPGGSMKLSCVASGYTFGDNWMNWVRQSPEKGLEWVAEIRLKSNNYATRYAESVKGRFTISRDDSKSSVYLQMNNLRTEDTGIYYCTRTQFITSVVAPFDFWGQGTTLTVSS
VL: not shown
notes: also called 2E5HL human-mouse chimeric antibody; c2E5VHCH/c2E5VLCL
On to B1, for which the EC50 in assay [1] worked out at 0.0171 µg/mL; in assay [2], 0.0158 µg/mL.

B2: humanized antibody 2E5H3L0 (antibody, human IgG1, kappa, V domains shown)
VH: EVQLVESGGGLVQPGGSLKLSCAASGYTFGDNWMNWVRQASGKGLEWVGEIRLKSNNYATRYAESVKGRFTISRDDSKNTVYLQMNSLKTEDTAVYYCTRTQFITSVVAPFDFWGQGTTVTVSS
VL: not shown
notes: also called 2E5H3L0 humanized antibody; hu2E5VH3CH/hu2E5VL0CL
For the molecule B2, the EC50 in assay [1] is 0.0203 µg/mL; in assay [2], 0.0162 µg/mL.

The values above are taken from US20240174736A1 (STARMAB BIOLOGICS SUZHOU, published 2024).
